B1: TPR t1 (parent)
chain: GACCAAUCUGCCCUCAGAGCUCGAGAACAUCUUCGGAUGCAGAGGAGGCAGGCUUCGGUGGCGCGAUAGCGCCAACGUCCUCAACCUCCAAUGCAUCCCACCACAUGAUGAUGCCUGAAGAGCCUUGGUUUUUUG

Variants of B1 are the subject of the series. The series is described as follows: polymerase ribozyme fitness, log enrichment relative to wild type (log ratio); higher = more active; in vitro selection for triplet polymerase activity. Summed up: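 One round of in vitro selection, in triplicate, was applied to PCR-built, transcribed mutant libraries of each subunit of a heterodimeric triplet polymerase ribozyme. The steps were annealing with a biotinylated primer, partner subunit and triplets, incubation frozen at −7 °C, gel excision of extended constructs, streptavidin-bead capture and RT-PCR. Fitness is the logarithm, base 2, of genotype enrichment over wild-type enrichment from inverse-variance-weighted replicate averages of Illumina-sequenced inputs and outputs, keeping genotypes with ≥10 input reads and ≥1 read per output.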
C56A C82G A91C G93C: the “polymerase ribozyme fitness (log ratio)” value is -3.53.
With C56A C62U the figure was -0.164; with C56A C62G, -3.98.
On to C56G C79A A83U A90C C114A, for which the “polymerase ribozyme fitness (log ratio)” value was -7.42.
Consider U55G C73A, for which the “polymerase ribozyme fitness (log ratio)” value is 0.256.
For the variant C56G C70A, the “polymerase ribozyme fitness (log ratio)” value was -3.64.
As for C56G C70G, the “polymerase ribozyme fitness (log ratio)” value is -3.88.
As for C56U A100C U112C, the “polymerase ribozyme fitness (log ratio)” value came out at 0.715.
Turning to C56A A74C C98U, the “polymerase ribozyme fitness (log ratio)” value is -0.178.
As to C56A A83G U129G, the “polymerase ribozyme fitness (log ratio)” value was -2.3.
The same measure for C56U C73G A90U: -3.53.
The same measure for C56G A74U G110A U116G C124G G135U: -5.19; for U55G C72U: -0.317; for C56U C102A U129G: -3.35.
C56U C114G U131A: the “polymerase ribozyme fitness (log ratio)” value was -2.06.
In the case of C56G C124A U131A, the “polymerase ribozyme fitness (log ratio)” value turned out to be 1.66.
C56A G63A: the “polymerase ribozyme fitness (log ratio)” value was -2.26.
As for C56A G63U, the “polymerase ribozyme fitness (log ratio)” value was -4.97.
As for C56U A83C, the “polymerase ribozyme fitness (log ratio)” value is 1.56.
C56A C72G U78C: the “polymerase ribozyme fitness (log ratio)” value was -1.29.
With U55C G113U the figure was -3.3.
Take U55C G113A: the “polymerase ribozyme fitness (log ratio)” value was -1.89.
Consider C56A C97G, for which the “polymerase ribozyme fitness (log ratio)” value is -4.2.
Regarding U55G C82A, the “polymerase ribozyme fitness (log ratio)” value is -0.266.
As to C56U C62U, the “polymerase ribozyme fitness (log ratio)” value was -0.378.
Regarding C56A C124A, the “polymerase ribozyme fitness (log ratio)” value came out at 1.04.
The same measure for U55C U87G G135U: -1.63; for C56U C79A G113U: -4.28.
As for C56U C86U, the “polymerase ribozyme fitness (log ratio)” value was -0.265.
C56A A66U G71C G120U: the “polymerase ribozyme fitness (log ratio)” value is -7.24.
In the case of C56G C98A, the “polymerase ribozyme fitness (log ratio)” value was -3.95.
With C56A G69U C79U A100U A103C the figure was -3.37; with C56A A84G C104U G120A, -1.12.
In the case of C56A C82A C88U, the “polymerase ribozyme fitness (log ratio)” value is -0.846.
With C56G G58U U59C C124A the figure was 1.88; with C56U C70G C115A G122A, -4.59; with C56A G63A C89U, -3.22.
As for U55G U96A C115U, the “polymerase ribozyme fitness (log ratio)” value is -2.35.
For the variant U55G U132C, the “polymerase ribozyme fitness (log ratio)” value was -0.153.
Regarding C56G C79G C124U, the “polymerase ribozyme fitness (log ratio)” value is -0.0923.
With C56G C89G G122A U129A the figure was -4.09.
With C56A C73U C88U U126G the figure was -3.16; with U55G C56A U106A, -1.04.
With C56G G93U G135U the figure was -3.52.
Turning to C56A C114U, the “polymerase ribozyme fitness (log ratio)” value is -2.03.
With C56A C114A the figure was -1.74; with C56G A91C C123A, 0.632.
With C56G C124A, the “polymerase ribozyme fitness (log ratio)” value was determined as 1.73.
Consider C56G C124G, for which the “polymerase ribozyme fitness (log ratio)” value was determined as 0.656.
With C56U C72A C88U the figure was -1.31; with C56U C72G A83G C123U, -1.18; with U55G C88A C115U C124A G128U, -4.24.
The same measure for C56A A121C: 0.751; for C56G G61A G77A: 0.026.
For the variant C56U C72A G122A, the “polymerase ribozyme fitness (log ratio)” value is -1.69.
Turning to U55G U81A A119U, the “polymerase ribozyme fitness (log ratio)” value was -1.33.
Consider C56U C72A C89A, for which the “polymerase ribozyme fitness (log ratio)” value is -2.41.
Turning to U55G C56U G117A G135C, the “polymerase ribozyme fitness (log ratio)” value was -2.53.
For C56G U87A, the “polymerase ribozyme fitness (log ratio)” value is -1.33.
Consider C56G U87G, for which the “polymerase ribozyme fitness (log ratio)” value is -0.352.
Turning to U55G G61C, the “polymerase ribozyme fitness (log ratio)” value is -1.85.
On to C56U C79A C99U C102A G120A G127U, for which the “polymerase ribozyme fitness (log ratio)” value was -5.84.
For the variant C56A C76A, the “polymerase ribozyme fitness (log ratio)” value is -0.802.
On to C56A U87A U92A G120A A121U U131A, for which the “polymerase ribozyme fitness (log ratio)” value was -4.2.
For C56U C72G C88A, the “polymerase ribozyme fitness (log ratio)” value was -3.53.
With C56G C79U U92A, the “polymerase ribozyme fitness (log ratio)” value is -3.45.
Turning to C56U C101G A118C C124G, the “polymerase ribozyme fitness (log ratio)” value is -2.41.
For C56A U116A, the “polymerase ribozyme fitness (log ratio)” value was -3.29.
For the variant C56A U116C, the “polymerase ribozyme fitness (log ratio)” value was -0.712.
For the variant C56U C89U U116C G127A G135U, the “polymerase ribozyme fitness (log ratio)” value is -3.61.
For the variant C56G U78A U116G, the “polymerase ribozyme fitness (log ratio)” value is -3.2.
The same measure for C56A C79U U109A C123G: -6.51.
For the variant C56G G113A, the “polymerase ribozyme fitness (log ratio)” value is -1.08.
With C56G G65A the figure was -4.66; with C56G G69U A100U U130C, -0.344.
U55G C72U U87C G107U: the “polymerase ribozyme fitness (log ratio)” value was -4.49.
Turning to C56A C70A, the “polymerase ribozyme fitness (log ratio)” value was -2.72.
On to C56G G61U C73U, for which the “polymerase ribozyme fitness (log ratio)” value is -3.17.
As for C56G G107U, the “polymerase ribozyme fitness (log ratio)” value was -5.02.
For the variant U55G C104A, the “polymerase ribozyme fitness (log ratio)” value was -1.59.
Take C56U A74C A75U C124U: the “polymerase ribozyme fitness (log ratio)” value was 0.971.
In the case of C56A A95C U106A C124U, the “polymerase ribozyme fitness (log ratio)” value was 0.424.
The same measure for C56A C114A G135A: -2.55.
In the case of C56U G60A, the “polymerase ribozyme fitness (log ratio)” value is -3.37.
Consider U55C G71A A84U C102A C104U, for which the “polymerase ribozyme fitness (log ratio)” value was -3.41.
C56U C73U A105U: the “polymerase ribozyme fitness (log ratio)” value is -2.37.
In the case of C56A C79G U87A, the “polymerase ribozyme fitness (log ratio)” value was -1.58.
With C56U G57U A90C G110U the figure was -3.95.
Turning to C56A U109A, the “polymerase ribozyme fitness (log ratio)” value was -5.84.
C56A U109G: the “polymerase ribozyme fitness (log ratio)” value was -4.29.
With C56A U109C, the “polymerase ribozyme fitness (log ratio)” value is -3.16.
With C56U C94U G120C A121U G127U, the “polymerase ribozyme fitness (log ratio)” value amounted to 0.202.
In the case of C56A C62G C88U, the “polymerase ribozyme fitness (log ratio)” value was -3.82.
As to U55G C72G C82U A100U G113U, the “polymerase ribozyme fitness (log ratio)” value is -5.31.
C56A U81A C102A: the “polymerase ribozyme fitness (log ratio)” value is -3.37.
With C56A C72U C104A C124U the figure was -0.00796; with U55G C56U, -0.601.
For the variant C56G C70U C88U U106A U133A, the “polymerase ribozyme fitness (log ratio)” value is -1.55.
For C56U C64A C115U, the “polymerase ribozyme fitness (log ratio)” value was -7.12.
In the case of C56U A95C C98U, the “polymerase ribozyme fitness (log ratio)” value was -1.83.
As to C56A G77U, the “polymerase ribozyme fitness (log ratio)” value was -0.278.
Take C56A G77C: the “polymerase ribozyme fitness (log ratio)” value was -0.0761.
C56G G71A G110U G117A: the “polymerase ribozyme fitness (log ratio)” value was -5.02.
As for C56A C101U U106C A111C, the “polymerase ribozyme fitness (log ratio)” value is -0.932.
The same measure for C56A G69A G117U: -6.41; for C56G C62U A105U U129C: -3.68.
Regarding C56A C82U, the “polymerase ribozyme fitness (log ratio)” value was -0.413.
As for C56A C123U, the “polymerase ribozyme fitness (log ratio)” value was 1.2.
Consider C56A C72G G77C C98U G128A, for which the “polymerase ribozyme fitness (log ratio)” value was -3.6.
For C56G G77C G127C U129G, the “polymerase ribozyme fitness (log ratio)” value is -0.438.
In the case of C56U A91C, the “polymerase ribozyme fitness (log ratio)” value is -1.17.
Turning to U55C U59A C88U, the “polymerase ribozyme fitness (log ratio)” value was -0.406.
Consider C56A C79U U87A, for which the “polymerase ribozyme fitness (log ratio)” value was -0.983.
In the case of C56A C62A U78C C79U, the “polymerase ribozyme fitness (log ratio)” value was -4.08.
With C56G G93A, the “polymerase ribozyme fitness (log ratio)” value was -1.61.
In the case of C56G G93C, the “polymerase ribozyme fitness (log ratio)” value is -1.86.
As to C56A U92G C101G A121G, the “polymerase ribozyme fitness (log ratio)” value was -4.49.
As for C56G G110U G117A, the “polymerase ribozyme fitness (log ratio)” value was -4.5.
For the variant C56A C79G, the “polymerase ribozyme fitness (log ratio)” value is -0.642.
For the variant C56A G71U U81G A111C A119G G135A, the “polymerase ribozyme fitness (log ratio)” value was -4.66.
On to C56G C72U, for which the “polymerase ribozyme fitness (log ratio)” value is -1.05.
Regarding C56G C72G, the “polymerase ribozyme fitness (log ratio)” value is -2.27.
Take C56G G57C U92G U96A U132A: the “polymerase ribozyme fitness (log ratio)” value was -3.72.
With C56A G69U A108G U112C G117A U134C, the “polymerase ribozyme fitness (log ratio)” value is -3.02.
On to C56A C99U A121C, for which the “polymerase ribozyme fitness (log ratio)” value was -2.01.
With C56G G69A the figure was -2.86; with C56G G117A, -2.32; with C56G G117C, -2.91.
Regarding C56U C64A, the “polymerase ribozyme fitness (log ratio)” value was -7.74.
As for C56U C88A, the “polymerase ribozyme fitness (log ratio)” value is -0.497.
Regarding U55G U109A, the “polymerase ribozyme fitness (log ratio)” value is -5.03.
Take C56U C70U U132C: the “polymerase ribozyme fitness (log ratio)” value was -0.908.
With U55G G60A C89A C114A the figure was -2.87; with U55G G57A, -0.536; with C56A U112A C114A U116G, -6.59.
Take C56G A90C A121G: the “polymerase ribozyme fitness (log ratio)” value turned out to be 1.01.
The same measure for C56U C85A C88A: -2.83; for U55G C64U A90C U92G C101A: -3.82; for C56A C88U: -0.627.
The same measure for C56A C88A: -0.627.
Regarding U55C G69C C79A, the “polymerase ribozyme fitness (log ratio)” value was -3.59.
With C56U C72U U116C G117U G120U the figure was -3.95.
With C56G A66U the figure was -1.02; with C56A C102U, -1.54; with C56G C70U C88U U106A, -2.44.
U55G G58A U130A: the “polymerase ribozyme fitness (log ratio)” value is -0.383.
Consider U55C U92G, for which the “polymerase ribozyme fitness (log ratio)” value is -2.25.
With C56U A121C the figure was 1.68.
With C56U A121G the figure was 1.94.
Regarding C56A G60U G113A, the “polymerase ribozyme fitness (log ratio)” value is -1.2.
Regarding U55G A121C G135U, the “polymerase ribozyme fitness (log ratio)” value was determined as 1.07.
For the variant C56A C64U C114A, the “polymerase ribozyme fitness (log ratio)” value is -2.59.
As to C56U C124U, the “polymerase ribozyme fitness (log ratio)” value was 1.6.
On to C56U C80A C97U, for which the “polymerase ribozyme fitness (log ratio)” value was -2.71.
Regarding C56G G63C, the “polymerase ribozyme fitness (log ratio)” value is -2.95.
In the case of C56A A105C, the “polymerase ribozyme fitness (log ratio)” value is -3.61.
For the variant C56U C70A, the “polymerase ribozyme fitness (log ratio)” value is -3.82.
The same measure for C56A C94A: -1.2; for U55G A66U A83U: -3.53.
The same measure for U55G C56G U78A C99U U131A: -4.29; for C56G A66G C88U C115A: -1.71.
As for C56G U81G, the “polymerase ribozyme fitness (log ratio)” value was -2.07.
With U55G A90C U92G C101A, the “polymerase ribozyme fitness (log ratio)” value is -3.67.
With U55G C70U C89A C104U the figure was -2.38.
Consider C56G G61U U106A C115U, for which the “polymerase ribozyme fitness (log ratio)” value is -5.22.
The same measure for C56A C80U C102A C124U: -2.1.
For C56A A111U, the “polymerase ribozyme fitness (log ratio)” value is -3.34.

The record behind these values is the RNAGym collection of RNA variant scans (doi:10.1073/pnas.2313332121).
